Measured values published in paper PMC3852207, “The Structure of the RLIP76 RhoGAP-Ral Binding Domain Dyad: Fixed Position of the Domains Leads to Dual Engagement of Small G Proteins at the Membrane” (Structure(London, England:1993), 2013).

T1: His-RLIP76 GAP-GBD didomain (residues 184-446) (human, UniProt Q15311 184-446)
T1 construct: Construct details are in Rajasekar et al., 2012; also called RLIP76 didomain; RhoGAP-GBD didomain; source: expressed and purified as described previously (Rajasekar et al., 2012)
T1 sequence (looked up): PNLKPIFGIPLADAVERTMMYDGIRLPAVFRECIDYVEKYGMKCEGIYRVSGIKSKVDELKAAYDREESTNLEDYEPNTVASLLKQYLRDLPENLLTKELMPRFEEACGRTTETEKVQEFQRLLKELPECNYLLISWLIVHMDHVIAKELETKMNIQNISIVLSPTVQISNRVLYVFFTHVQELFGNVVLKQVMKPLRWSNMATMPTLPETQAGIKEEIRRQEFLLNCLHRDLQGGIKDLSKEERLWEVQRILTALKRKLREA

B1: Q61L Cdc42·[3H]GTP (natural protein)
chain: not shown
notes: Cdc42, GTPase-deficient mutant Q61L, loaded with [3H]GTP; Q61L is stated for the SPA experiments in general; also called [3H]GTP·Cdc42
B2: His-RLIP76 GAP insert (RLIP76 GAP domain with the F-G loop of p50 RhoGAP) (domain or fragment)
chain: PNLKPIFGIPLADAVERTMMYDGIRLPAVFRECIDYVEKYGMKCEGIYRVSGIKSKVDELKAAYDREESTNLEDYEPNTVASLLKQYLRDLPENLLTKELMPRFEEACGRTTETEKVQEFQRLLKELPECNYLLISWLIVHMDHVIAKELETKMNIQNISIVLSPTVLWAKDAAITLKAINPINRVLYVFFTHVQELFGNVVLKQVMKPL
notes: Made from the pET16b RLIP GAP domain construct; also called GAP insert mutant; RLIP76 GAP insert domain
B3: RalB (natural protein, UniProt P11234 1-206, looked up)
chain: MAANKSKGQSSLALHKVIMVGSGGVGKSALTLQFMYDEFVEDYEPTKADSYRKKVVLDGEEVQIDILDTAGQEDYAAIRDNYFRSGEGFLLVFSITEHESFTATAEFREQILRVKAEEDKIPLLVVGNKSDLEERRQVPVEEARSKAEEWGVQYVETSAKTRANVDKVFFDLMREIRTKKMSENKDKNGKKSSKNKKSFKERCCLL
notes: RalB small GTPase

Assays:
[1] = target: B2; test: scintillation proximity assay (competition); competitor titrated into 30 nM [3H]GTP·Rac1 or [3H]GTP·Cdc42 and 30 nM GST-p50 RhoGAP immobilised on fluoromicrospheres via an anti-GST antibody; partial competition model for RLIP76 GAP and didomain, full competition for GAP insert and free p50 RhoGAP; conditions: both partners purified
GST-PAK1 = target: T2, GST-PAK1 (UniProt Q13153 1-545); test: scintillation proximity assay (direct); GST-PAK1 on SPA beads as control binding partner; concentration of Q61L Rac1/Cdc42·[3H]GTP varied; apparent Kd; conditions: both partners purified
T2 construct: PAK1, positive control effector of Cdc42 and Rac1

Q61L Rac1·[3H]GTP = Q61L Rac1·[3H]GTP (UniProt P63000 1-192, Q61L); test: scintillation proximity assay (competition); competitor titrated into 30 nM [3H]GTP·Rac1 or [3H]GTP·Cdc42 and 30 nM GST-p50 RhoGAP immobilised on fluoromicrospheres via an anti-GST antibody; partial competition model for RLIP76 GAP and didomain, full competition for GAP insert and free p50 RhoGAP; conditions: both partners purified
[2] = target: T1, His-RLIP76 GAP-GBD didomain (residues …); test: not stated; data not shown

Binder: B1
Kd [1]: 1270 nM
Kd (GST-PAK1): 32 nM

Binder: B2
Kd (Q61L Rac1·[3H]GTP): 1440 nM

Binder: B3
Kd [2]: ~200 nM
